Laboratory results reported in patent US20090305255.

Tests used:
[1] = target: SAKI (Substrate of AIM-1 kinase)
SAKI (Substrate of AIM-1 kinase), sequence (chain, as listed by the source): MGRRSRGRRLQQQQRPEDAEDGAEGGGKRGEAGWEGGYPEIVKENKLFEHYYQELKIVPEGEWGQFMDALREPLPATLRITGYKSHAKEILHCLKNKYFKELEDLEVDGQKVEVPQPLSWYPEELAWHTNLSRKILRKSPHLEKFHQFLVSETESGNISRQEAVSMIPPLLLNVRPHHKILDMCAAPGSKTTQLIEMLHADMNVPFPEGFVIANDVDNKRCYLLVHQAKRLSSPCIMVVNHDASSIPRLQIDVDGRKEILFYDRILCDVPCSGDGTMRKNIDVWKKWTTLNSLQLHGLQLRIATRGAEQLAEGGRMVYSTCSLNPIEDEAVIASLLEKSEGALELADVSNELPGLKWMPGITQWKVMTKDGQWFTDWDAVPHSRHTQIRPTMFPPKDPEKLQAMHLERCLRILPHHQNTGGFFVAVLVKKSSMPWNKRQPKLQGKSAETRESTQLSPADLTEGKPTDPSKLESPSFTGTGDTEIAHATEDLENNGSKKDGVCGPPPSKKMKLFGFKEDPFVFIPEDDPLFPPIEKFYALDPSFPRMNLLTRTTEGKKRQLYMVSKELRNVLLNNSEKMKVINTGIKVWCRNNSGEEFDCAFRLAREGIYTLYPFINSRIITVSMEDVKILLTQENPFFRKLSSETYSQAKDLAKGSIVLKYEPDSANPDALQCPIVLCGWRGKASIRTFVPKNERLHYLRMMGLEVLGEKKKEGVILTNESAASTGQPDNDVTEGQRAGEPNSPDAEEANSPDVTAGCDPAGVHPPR

B1: AIM-1 (Aurora and Ipl1-like midbody-associated protein) (protein)
chain: MAQKENSYPWPYGRQTAPSGLSTLPQRVLRKEPVTPSALVLMSRSNVQPTAAPGQKVMENSSGTPDILTRHFTIDDFEIGRPLGKGKFGNVYLAREKKSHFIVALKVLFKSQIEKEGVEHQLRREIEIQAHLHHPNILRLYNYFYDRRRIYLILEYAPRGELYKELQKSCTFDEQRTATIMEELADALMYCHGKKVIHRDIKPENLLLGLKGELKIADFGWSVHAPSLRRKTMCGTLDYLPPEMIEGRMHNEKVDLWCIGVLCYELLVGNPPFESASHNETYRRIVKVDLKFPASVPMGAQDLISKLLRHNPSERLPLAQVSAHPWVRANSRRVLPPSALQSVA
H3 histone, P68431
  in-vitro phosphorylation experiments: both AIM-1 and Aik phosphorylated H3 histone
[1]
  immunoblotting with the anti-H3 histone Ser-10 phosphorylation site antibody after expression of the AIM-1 kinase-deficient mutant protein in HeLa: there was a protein that is seemingly phosphorylated by AIM-1 in the region close to 100 kDa

B2: Aik (protein)
chain: MDRSKENCISGPVKATAPVGGPKRVLVTQQFPCQNPLPVNSGQAQRVLCPSNSSQRIPLQAQKLVSSHKPVQNQKQKQLQATSVPHPVSRPLNNTQKSKQPLPSAPENNPEEELASKQKNEESKKRQWALEDFEIGRPLGKGKFGNVYLAREKQSKFILALKVLFKAQLEKAGVEHQLRREVEIQSHLRHPNILRLYGYFHDATRVYLILEYAPLGTVYRELQKLSKFDEQRTATYITELANALSYCHSKRVIHRDIKPENLLLGSAGELKIADFGWSVHAPSSRRTTLCGTLDYLPPEMIEGRMHDEKVDLWSLGVLCYEFLVGKPPFEANTYQETYKRISRVEFTFPDFVTEGARDLISRLLKHNPSQRPMLREVLEHPWITANSSKPSNCQNKESASKQS
H3 histone, P68431
  in-vitro phosphorylation experiments: both AIM-1 and Aik phosphorylated H3 histone
